Broadly, the stoichiometry N is the number of molecules, sites or subunits per partner or assembly.

Common to all, as to assay: SEC
For orientation: In gel filtration, larger molecules generally elute earlier.

The target of test [1] is bimodular construct 25 (MAT-ACP didomain fused to full-length mFAS) (Mus musculus) (UniProt P19096).
The target of test [2] is mFAS alpha-module, construct 17 (KS-MAT-ACP, mFAS sequences only) (Mus musculus).
For test [3], the target named is mFAS alpha-module, construct 22 (KS-MAT-ACP-TE, mFAS sequences only) (Mus musculus).
Test [4] deals with mFAS delta-module, construct 6 (2-2195) (Mus musculus) (UniProt P19096).
For test [5], the target named is murine fatty acid synthase (mFAS) (Mus musculus) (UniProt P19096). Conditions: remark: other sources report otherwise.

With “bimodular construct 25 (MAT-ACP didomain fused to full-length mFAS) (from UniProt P19096 1-2504)”, in test [1], the stoichiometry N worked out at 2.

The substance “mFAS alpha-module, construct 17 (KS-MAT-ACP, mFAS sequences only) (domain or fragment)” yielded a stoichiometry N in test [2] of 2.

With “mFAS alpha-module, construct 22 (KS-MAT-ACP-TE, mFAS sequences only) (domain or fragment)”, the stoichiometry N in test [3] was determined as 2.

For “mFAS delta-module, construct 6 (2-2195), P19096 2-2195”, the stoichiometry N in test [4] is 2.

As to “murine fatty acid synthase (mFAS), P19096 1-2504”, in test [5], the stoichiometry N turned out to be 2.

The record behind these values is paper doi:10.1101/379156.
